Measured values taken from article PMC3888030 (Journal of immunology (Baltimore, Md. : 1950), 2013).
Where two headings read alike, the source gives them in different places.

Key:
HLA-DR4 = details: cited from earlier work
[1] = system: IVS T cells from vaccinated melanoma patients; type: cell-based, human
[2] = molecular target: purified HLA-DR4 (HLA-DRB1*0401) (human); test: radioligand binding

Row | Molecule | IC50 [2] [nM] | other results
1 | MBP111–129: self peptide from myelin basic protein (PSESDELQTIQEDSAATSE; UniProt P02686 111-129, looked up, fragment) |  | affinity for HLA-DR4 (HLA-DR4): binds weakly
2 | PKYVKQNTLKLAT [HA307–319] |  | Background IFN-γ secretion by T cells stimulated with APC + control peptide ([1]; Patient #2, 1 μM peptide stimulation): 213 pg/mL; Background IFN-γ secretion by T cells stimulated with APC + control peptide ([1]; Patient #2, 10 μM peptide stimulation): 208 pg/mL; Background IFN-γ secretion by T cells stimulated with APC + control peptide ([1]; Patient #4, 1 μM peptide stimulation): 187 pg/mL; Background IFN-γ secretion by T cells stimulated with APC + control peptide ([1]; Patient #4, 10 μM peptide stimulation): 191 pg/mL; Background IFN-γ secretion by T cells stimulated with APC + control peptide ([1]; Patient #5, 1 μM peptide stimulation): 346 pg/mL; Background IFN-γ secretion by T cells stimulated with APC + control peptide ([1]; Patient #5, 10 μM peptide stimulation): 388 pg/mL; affinity for HLA-DR4 (HLA-DR4): high affinity
3 | WNRQLYPEWTTAQRLD [gp100 44-59 APL E54T] | 104 | 
4 | WNRQLYPEWTEGQRLD [gp100 44-59 APL A55G] | 553 | 
5 | WNRQLYPEWTEAARLD [gp100 44-59 APL Q56A] | 276 | 
6 | WNRQFYPEWTEAQRLD [gp100 44-59 APL L48F] | 280 | 
7 | WNRQLYAEWTEAQRLD [gp100 44-59 APL P50A] | 189 | 
8 | WNRQLYPAWTEAQRLD [gp100 44-59 APL E51A] | 199 | 
9 | WNRQLYPEATEAQRLD [gp100 44-59 APL W52A] | 372 | 
10 | WNRQLYPEWVEAQRLD [gp100 44-59 APL T53V] | 489 | 
11 | WNRQLYPEWTLAQRLD [gp100 44-59 APL E54L] | 65 | 
